According to publication PMC12152161:

T1: full-length KIF1C(WT)−Flag−EGFP (UniProt O43896)
T1 sequence: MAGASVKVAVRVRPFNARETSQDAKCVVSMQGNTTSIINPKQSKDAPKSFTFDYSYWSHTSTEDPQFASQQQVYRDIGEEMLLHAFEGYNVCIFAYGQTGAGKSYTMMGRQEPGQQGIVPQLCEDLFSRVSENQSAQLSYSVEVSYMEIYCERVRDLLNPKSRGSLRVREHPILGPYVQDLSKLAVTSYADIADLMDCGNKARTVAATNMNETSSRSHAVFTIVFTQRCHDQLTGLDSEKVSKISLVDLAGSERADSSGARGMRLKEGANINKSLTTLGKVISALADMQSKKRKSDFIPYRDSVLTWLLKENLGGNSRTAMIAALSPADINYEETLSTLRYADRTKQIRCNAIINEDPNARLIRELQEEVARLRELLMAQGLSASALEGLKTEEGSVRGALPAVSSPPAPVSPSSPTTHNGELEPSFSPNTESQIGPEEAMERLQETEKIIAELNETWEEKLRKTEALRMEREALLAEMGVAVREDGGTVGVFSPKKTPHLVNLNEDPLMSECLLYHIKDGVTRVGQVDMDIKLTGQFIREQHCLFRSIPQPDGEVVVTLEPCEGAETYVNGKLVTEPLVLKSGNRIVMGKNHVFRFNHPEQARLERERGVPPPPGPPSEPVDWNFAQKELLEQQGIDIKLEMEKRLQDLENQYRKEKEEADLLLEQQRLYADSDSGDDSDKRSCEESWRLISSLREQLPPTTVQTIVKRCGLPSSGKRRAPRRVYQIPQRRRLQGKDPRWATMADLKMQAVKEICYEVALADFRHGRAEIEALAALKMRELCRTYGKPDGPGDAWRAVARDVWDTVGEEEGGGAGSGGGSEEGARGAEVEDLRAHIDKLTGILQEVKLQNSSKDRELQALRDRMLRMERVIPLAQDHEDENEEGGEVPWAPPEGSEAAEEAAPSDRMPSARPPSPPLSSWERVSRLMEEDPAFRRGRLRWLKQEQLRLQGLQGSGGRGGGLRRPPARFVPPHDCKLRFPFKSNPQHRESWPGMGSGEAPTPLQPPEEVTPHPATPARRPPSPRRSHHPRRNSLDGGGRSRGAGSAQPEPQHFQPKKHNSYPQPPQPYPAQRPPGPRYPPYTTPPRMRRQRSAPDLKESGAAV

T2: full-length KIF1C(Y757A ∙ F764A)−Flag−EGFP (UniProt O43896)
T2 sequence: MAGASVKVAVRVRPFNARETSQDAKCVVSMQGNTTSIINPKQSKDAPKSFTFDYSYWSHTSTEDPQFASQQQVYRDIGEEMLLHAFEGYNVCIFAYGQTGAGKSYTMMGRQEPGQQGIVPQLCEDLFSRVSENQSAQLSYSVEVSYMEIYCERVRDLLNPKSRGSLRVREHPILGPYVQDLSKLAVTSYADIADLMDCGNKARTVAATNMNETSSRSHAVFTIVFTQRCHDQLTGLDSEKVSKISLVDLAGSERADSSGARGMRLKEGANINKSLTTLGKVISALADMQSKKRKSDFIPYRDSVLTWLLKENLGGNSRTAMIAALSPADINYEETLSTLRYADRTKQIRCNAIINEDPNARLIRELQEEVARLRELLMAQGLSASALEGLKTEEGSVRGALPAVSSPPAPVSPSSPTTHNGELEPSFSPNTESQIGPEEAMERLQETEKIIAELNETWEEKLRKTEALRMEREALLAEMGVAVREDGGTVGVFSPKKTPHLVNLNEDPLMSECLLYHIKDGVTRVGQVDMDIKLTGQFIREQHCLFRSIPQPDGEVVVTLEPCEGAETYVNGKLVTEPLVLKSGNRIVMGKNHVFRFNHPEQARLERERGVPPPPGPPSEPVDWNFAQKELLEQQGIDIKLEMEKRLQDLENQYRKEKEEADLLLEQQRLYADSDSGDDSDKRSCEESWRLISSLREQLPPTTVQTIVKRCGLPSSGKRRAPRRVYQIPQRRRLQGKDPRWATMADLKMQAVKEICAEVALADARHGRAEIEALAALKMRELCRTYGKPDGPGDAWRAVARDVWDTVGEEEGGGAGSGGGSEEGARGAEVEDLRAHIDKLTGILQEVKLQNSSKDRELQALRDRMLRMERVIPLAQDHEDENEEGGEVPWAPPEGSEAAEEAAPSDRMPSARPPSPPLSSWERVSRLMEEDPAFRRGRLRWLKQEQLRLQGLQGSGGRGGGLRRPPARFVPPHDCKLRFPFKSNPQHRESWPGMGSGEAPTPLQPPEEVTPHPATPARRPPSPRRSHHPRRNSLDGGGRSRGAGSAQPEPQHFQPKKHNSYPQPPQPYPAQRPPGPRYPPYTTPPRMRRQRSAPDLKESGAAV


Experiments:
[1] = target: T1, full-length KIF1C(WT)−Flag−EGFP
[2] = target: T2, full-length KIF1C(Y757A ∙ F764A)−Flag−EGFP

| tail/cytoplasm ratio of Hook3−Myc−FuRed upon co-expression in RPE1 cells, 16 h post transfection (tail/cytoplasm ratio) [1] | tail/cytoplasm ratio of Hook3−Myc−FuRed upon co-expression in RPE1 cells, 16 h post transfection (tail/cytoplasm ratio) [2] | Binder |
| --- | --- | --- |
| 0.7 | 0.7 | full-length Hook3(V614E)−Myc−FuRed (natural protein) MFSVESLERAELCESLLTWIQTFNVDAPCQTVEDLTNGVVMAQVLQKIDPAYFDENWLNRIKTEVGDNWRLKISNLKKILKGILDYNHEILGQQINDFTLPDVNLIGEHSDAAELGRMLQLILGCAVNCEQKQEYIQAIMMMEESVQHVVMTAIQELMSKESPVSAGNDAYVDLDRQLKKTTEELNEALSAKEEIAQRCHELDMQVAALQEEKSSLLAENQVLMERLNQSDSIEDPNSPAGRRHLQLQTQLEQLQEETFRLEAAKDDYRIRCEELEKEISELRQQNDELTTLADEAQSLKDEIDVLRHSSDKVSKLEGQVESYKKKLEDLGDLRRQVKLLEEKNTMYMQNTVSLEEELRKANAARSQLETYKRQVVELQNRLSEESKKADKLDFEYKRLKEKVDSLQKEKDRLRTERDSLKETIEELRCVQAQEGQLTTQGLMPLGSQESSDSLAAEIVTPEIREKLIRLQHENKMLKLNQEGSDNEKIALLQSLLDDANLRKNELETENRLVNQRLLEVQSQVEELQKSLQDQGSKAEDSVLLKKKLEEHLEKLHEANNELQKKRAIIEDLEPRFNNSSLKIEELQEALRKKEEEMKQMEERYKKYLEKAKSEIRTLDPKQNQGAAPEIQALKNQLQERDRLFHSLEKEYEKTKSQREMEEKYIVSAWYNMGMTLHKKAAEDRLASTGSGQSFLARQRQATSSRRSYPGHVQPATAR |
| – | 0.7 | full-length Hook3(WT)−Myc−FuRed (natural protein) MFSVESLERAELCESLLTWIQTFNVDAPCQTVEDLTNGVVMAQVLQKIDPAYFDENWLNRIKTEVGDNWRLKISNLKKILKGILDYNHEILGQQINDFTLPDVNLIGEHSDAAELGRMLQLILGCAVNCEQKQEYIQAIMMMEESVQHVVMTAIQELMSKESPVSAGNDAYVDLDRQLKKTTEELNEALSAKEEIAQRCHELDMQVAALQEEKSSLLAENQVLMERLNQSDSIEDPNSPAGRRHLQLQTQLEQLQEETFRLEAAKDDYRIRCEELEKEISELRQQNDELTTLADEAQSLKDEIDVLRHSSDKVSKLEGQVESYKKKLEDLGDLRRQVKLLEEKNTMYMQNTVSLEEELRKANAARSQLETYKRQVVELQNRLSEESKKADKLDFEYKRLKEKVDSLQKEKDRLRTERDSLKETIEELRCVQAQEGQLTTQGLMPLGSQESSDSLAAEIVTPEIREKLIRLQHENKMLKLNQEGSDNEKIALLQSLLDDANLRKNELETENRLVNQRLLEVQSQVEELQKSLQDQGSKAEDSVLLKKKLEEHLEKLHEANNELQKKRAIIEDLEPRFNNSSLKIEELQEALRKKEEEMKQMEERYKKYLEKAKSVIRTLDPKQNQGAAPEIQALKNQLQERDRLFHSLEKEYEKTKSQREMEEKYIVSAWYNMGMTLHKKAAEDRLASTGSGQSFLARQRQATSSRRSYPGHVQPATAR |
